# Reference: IntAct's records for PubMed 31515488
# B1: WD repeat domain-containing protein 83 (Homo sapiens), Q9BRX9 (parent)
# chain: MAFPEPKPRPPELPQKRLKTLDCGQGAVRAVRFNVDGNYCLTCGSDKTLKLWNPLRGTLLRTYSGHGYEVLDAAGSFDNSSLCSGGGDKAVVLWDVASGQVVRKFRGHAGKVNTVQFNEEATVILSGSIDSSIRCWDCRSRRPEPVQTLDEARDGVSSVKVSDHEILAGSVDGRVRRYDLRMGQLFSDYVGSPITCTCFSRDGQCTLVSSLDSTLRLLDKDTGELLGEYKGHKNQEYKLDCCLSERDTHVVSCSEDGKVFFWDLVEGALALALPVGSGVVQSLAYHPTEPCLLTAMGGSVQCWREEAYEAEDGAG
# B2: Notch homolog 2 N-terminal-like protein A (Homo sapiens), Q7Z3S9 (parent)
# chain: MCVTYHNGTGYCKCPEGFLGEYCQHRDPCEKNRCQNGGTCVAQAMLGKATCRCASGFTGEDCQYSTSHPCFVSRPCLNGGTCHMLSRDTYECTCQVGFTGKECQWTDACLSHPCANGSTCTTVANQFSCKCLTGFTGQKCETDVNECDIPGHCQHGGTCLNLPGSYQCQCLQGFTGQYCDSLYVPCAPSPCVNGGTCRQTGDFTFECNCLPETVRRGTELWERDREVWNGKEHDEN
# partner: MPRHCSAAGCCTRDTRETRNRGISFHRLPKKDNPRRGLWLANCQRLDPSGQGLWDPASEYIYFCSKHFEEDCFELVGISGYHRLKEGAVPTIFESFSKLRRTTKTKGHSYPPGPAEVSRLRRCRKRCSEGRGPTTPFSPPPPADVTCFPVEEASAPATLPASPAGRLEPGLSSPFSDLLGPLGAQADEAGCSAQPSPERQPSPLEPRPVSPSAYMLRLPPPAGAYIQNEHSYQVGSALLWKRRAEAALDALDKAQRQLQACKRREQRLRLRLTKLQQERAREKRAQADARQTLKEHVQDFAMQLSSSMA
# B3: Keratin-associated protein 12-1 (Homo sapiens), P59990 (parent)
# chain: MCHTSCSSGCQPACCAPSPCQASCYIPVGCQSSVCVPVSFKPAVCVPVRCQSSVCVPVSCRPVVYAAPSCQSSGCCQPSCTSVLCRPISCSTPSCC
# B4: Ribose-phosphate pyrophosphokinase 1 (Homo sapiens), P60891-1 (parent)
# chain: MPNIKIFSGSSHQDLSQKIADRLGLELGKVVTKKFSNQETCVEIGESVRGEDVYIVQSGCGEINDNLMELLIMINACKIASASRVTAVIPCFPYARQDKKDKSRAPISAKLVANMLSVAGADHIITMDLHASQIQGFFDIPVDNLYAEPAVLKWIRENISEWRNCTIVSPDAGGAKRVTSIADRLNVDFALIHKERKKANEVDRMVLVGDVKDRVAILVDDMADTCGTICHAADKLLSAGATRVYAILTHGIFSGPAISRINNACFEAVVVTNTIPQEDKMKHCSKIQVIDISMILAEAIRRTHNGESVSYLFSHVPL
# partner: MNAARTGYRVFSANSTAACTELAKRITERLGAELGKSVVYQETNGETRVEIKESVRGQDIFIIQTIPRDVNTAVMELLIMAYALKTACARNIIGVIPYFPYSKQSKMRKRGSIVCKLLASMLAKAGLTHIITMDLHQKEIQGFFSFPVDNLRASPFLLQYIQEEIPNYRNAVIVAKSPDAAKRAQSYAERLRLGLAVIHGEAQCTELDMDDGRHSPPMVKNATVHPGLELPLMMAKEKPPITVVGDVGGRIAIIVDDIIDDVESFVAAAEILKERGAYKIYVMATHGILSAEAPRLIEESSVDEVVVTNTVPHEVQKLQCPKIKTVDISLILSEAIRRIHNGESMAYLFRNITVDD
# B5: SHC-transforming protein 1 (Homo sapiens), P29353 (parent)
# chain: MDLLPPKPKYNPLRNESLSSLEEGASGSTPPEELPSPSASSLGPILPPLPGDDSPTTLCSFFPRMSNLRLANPAGGRPGSKGEPGRAADDGEGIVGAAMPDSGPLPLLQDMNKLSGGGGRRTRVEGGQLGGEEWTRHGSFVNKPTRGWLHPNDKVMGPGVSYLVRYMGCVEVLQSMRALDFNTRTQVTREAISLVCEAVPGAKGATRRRKPCSRPLSSILGRSNLKFAGMPITLTVSTSSLNLMAADCKQIIANHHMQSISFASGGDPDTAEYVAYVAKDPVNQRACHILECPEGLAQDVISTIGQAFELRFKQYLRNPPKLVTPHDRMAGFDGSAWDEEEEEPPDHQYYNDFPGKEPPLGGVVDMRLREGAAPGAARPTAPNAQTPSHLGATLPVGQPVGGDPEVRKQMPPPPPCPGRELFDDPSYVNVQNLDKARQAVGGAGPPNPAINGSAPRDLFDMKPFEDALRVPPPPQSVSMAEQLRGEPWFHGKLSRREAEALLQLNGDFLVRESTTTPGQYVLTGLQSGQPKHLLLVDPEGVVRTKDHRFESVSHLISYHMDNHLPIISAGSELCLQQPVERKL
# partner: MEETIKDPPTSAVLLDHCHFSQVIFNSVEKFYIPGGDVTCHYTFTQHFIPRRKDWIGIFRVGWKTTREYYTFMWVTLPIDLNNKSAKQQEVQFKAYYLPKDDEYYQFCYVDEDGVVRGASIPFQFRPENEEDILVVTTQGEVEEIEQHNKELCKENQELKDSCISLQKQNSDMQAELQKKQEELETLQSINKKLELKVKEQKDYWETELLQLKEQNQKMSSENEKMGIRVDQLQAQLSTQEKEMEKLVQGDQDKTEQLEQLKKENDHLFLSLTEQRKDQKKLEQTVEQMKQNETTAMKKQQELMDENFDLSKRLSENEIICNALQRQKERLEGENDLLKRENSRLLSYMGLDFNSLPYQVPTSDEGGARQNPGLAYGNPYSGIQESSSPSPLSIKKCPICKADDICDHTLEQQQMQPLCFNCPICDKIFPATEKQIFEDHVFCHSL
# B6: Beta-taxilin (Homo sapiens), Q8N3L3 (parent)
# chain: MEANHSEQLSAERQSTPPGDSSSLPSHNGLEKEDGQDSPTPVQPPEKEASVHPDISEELNRQLEDIINTYGSAASTAGKEGSARASEQPENAESPDNEDGDCEETTEEAGREPVASGEPPTVKEPVSNKEQKLEKKILKGLGKEANLLMQNLNKLQTPEEKFDFLFKKYAELLDEHRTEQKKLKLLQKKQVQIQKEKDQLQGEHSRAILARSKLESLCRELQRHNKTLKEEALQRAREEEEKRKEITSHFQSTLTDIQGQIEQQSERNMKLCQENTELAEKLKSIIDQYELREEHLDKIFKHRELQQKLVDAKLEQAQEMMKEAEERHKREKEYLLNQAAEWKLQAKVLKEQETVLQAQLTLYSGRFEEFQSTLTKSNEVFATFKQEMDKTTKKMKKLEKDTATWKARFENCNKALLDMIEEKALRAKEYECFVMKIGRLENLCRALQEERNELHKKIRDAEISEKDDQSQHNSDEEPESNVSVDQEIDAEEVNSVQTAVKNLATAFMIIHHPESTPHQSKETQPEIGSSQESADAALKEPEQPPLIPSRDSESPLPPLTPQAEAEGGSDAEPPSKASNSPAGLGAETQCEGLPVGAQADQASWKPEAEASGQAPQAPTEASLQKMEADVPAPACAAEEHVAAMVPACEPSRQPPRAAAEELPVGASAGPQPRNVADTNLEGVD
# partner: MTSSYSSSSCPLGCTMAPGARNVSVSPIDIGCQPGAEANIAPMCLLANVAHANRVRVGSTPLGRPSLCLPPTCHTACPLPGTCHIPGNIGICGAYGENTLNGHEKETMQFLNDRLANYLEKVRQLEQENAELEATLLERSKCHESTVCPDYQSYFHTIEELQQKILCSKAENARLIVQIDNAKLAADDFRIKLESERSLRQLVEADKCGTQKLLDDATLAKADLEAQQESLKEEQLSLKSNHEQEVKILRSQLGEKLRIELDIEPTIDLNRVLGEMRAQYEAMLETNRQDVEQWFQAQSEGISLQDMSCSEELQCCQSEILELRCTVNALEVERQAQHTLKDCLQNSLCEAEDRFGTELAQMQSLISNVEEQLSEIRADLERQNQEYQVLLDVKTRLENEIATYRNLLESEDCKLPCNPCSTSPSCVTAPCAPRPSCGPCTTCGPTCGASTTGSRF
# B7: Ribosome biogenesis protein SLX9 homolog (Homo sapiens), Q9NSI2 (parent)
# chain: MGKVRGLRARVHQAAVRPKGEAAPGPAPPAPEATPPPASAAGKDWAFINTNIFARTKIDPSALVQKLELDVRSVTSVRRGEAGSSARSVPSIRRGAEAKTVLPKKEKMKLRREQWLQKIEAIKLAEQKHREERRRRATVVVGDLHPLRDALPELLGLEAGSRRQARSRESNKPRPSELSRMSAAQRQQLLEEERTRFQELLASPAYRASPLVAIGQTLARQMQLEDGGQL
# partner: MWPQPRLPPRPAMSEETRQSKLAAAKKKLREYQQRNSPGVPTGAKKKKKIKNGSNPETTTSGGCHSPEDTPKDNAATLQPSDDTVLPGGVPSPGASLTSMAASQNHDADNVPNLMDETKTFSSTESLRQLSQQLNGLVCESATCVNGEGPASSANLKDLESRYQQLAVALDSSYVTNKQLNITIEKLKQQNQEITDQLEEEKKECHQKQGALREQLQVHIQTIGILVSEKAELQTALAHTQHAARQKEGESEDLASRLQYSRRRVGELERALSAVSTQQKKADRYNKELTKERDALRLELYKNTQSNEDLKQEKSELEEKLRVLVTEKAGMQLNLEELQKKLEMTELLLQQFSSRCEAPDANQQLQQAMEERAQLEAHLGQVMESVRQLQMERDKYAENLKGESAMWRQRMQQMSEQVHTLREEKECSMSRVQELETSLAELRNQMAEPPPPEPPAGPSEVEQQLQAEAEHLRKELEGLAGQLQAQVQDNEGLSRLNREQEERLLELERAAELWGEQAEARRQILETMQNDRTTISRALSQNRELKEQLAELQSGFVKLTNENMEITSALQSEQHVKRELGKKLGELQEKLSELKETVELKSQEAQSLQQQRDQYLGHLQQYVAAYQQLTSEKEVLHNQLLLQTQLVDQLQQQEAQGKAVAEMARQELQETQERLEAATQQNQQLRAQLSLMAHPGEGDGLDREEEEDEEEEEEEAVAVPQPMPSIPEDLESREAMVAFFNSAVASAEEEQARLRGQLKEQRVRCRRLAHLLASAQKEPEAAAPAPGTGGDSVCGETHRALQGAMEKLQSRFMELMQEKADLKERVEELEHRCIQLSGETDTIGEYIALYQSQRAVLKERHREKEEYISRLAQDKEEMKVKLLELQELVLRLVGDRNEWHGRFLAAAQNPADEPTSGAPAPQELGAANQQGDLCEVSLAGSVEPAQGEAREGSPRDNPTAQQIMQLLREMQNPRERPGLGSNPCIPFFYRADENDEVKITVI
# B8: Protein LDOC1 (Homo sapiens), O95751 (parent)
# chain: MVDELVLLLHALLMRHRALSIENSQLMEQLRLLVCERASLLRQVRPPSCPVPFPETFNGESSRLPEFIVQTASYMLVNENRFCNDAMKVAFLISLLTGEAEEWVVPYIEMDSPILGDYRAFLDEMKQCFGWDDDEDDDDEEEEDDY
# partner: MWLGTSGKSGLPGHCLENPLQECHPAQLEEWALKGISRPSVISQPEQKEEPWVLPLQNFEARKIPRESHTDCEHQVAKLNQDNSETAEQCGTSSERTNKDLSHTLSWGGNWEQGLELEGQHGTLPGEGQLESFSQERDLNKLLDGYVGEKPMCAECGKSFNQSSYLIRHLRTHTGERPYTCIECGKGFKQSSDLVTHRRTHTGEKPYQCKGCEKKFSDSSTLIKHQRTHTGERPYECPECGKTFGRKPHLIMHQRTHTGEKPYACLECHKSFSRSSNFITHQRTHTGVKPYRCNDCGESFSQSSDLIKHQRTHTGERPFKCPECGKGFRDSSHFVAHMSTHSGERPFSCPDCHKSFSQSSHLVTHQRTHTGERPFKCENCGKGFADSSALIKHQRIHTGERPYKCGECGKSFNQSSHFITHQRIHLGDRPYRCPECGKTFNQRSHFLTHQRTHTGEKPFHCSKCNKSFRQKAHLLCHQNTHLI
# Variants of: B1
# Conditions: with keap1_human KEAP1, Q14145
# Chain of keap1_human KEAP1, Q14145 (Q14145 whole entry): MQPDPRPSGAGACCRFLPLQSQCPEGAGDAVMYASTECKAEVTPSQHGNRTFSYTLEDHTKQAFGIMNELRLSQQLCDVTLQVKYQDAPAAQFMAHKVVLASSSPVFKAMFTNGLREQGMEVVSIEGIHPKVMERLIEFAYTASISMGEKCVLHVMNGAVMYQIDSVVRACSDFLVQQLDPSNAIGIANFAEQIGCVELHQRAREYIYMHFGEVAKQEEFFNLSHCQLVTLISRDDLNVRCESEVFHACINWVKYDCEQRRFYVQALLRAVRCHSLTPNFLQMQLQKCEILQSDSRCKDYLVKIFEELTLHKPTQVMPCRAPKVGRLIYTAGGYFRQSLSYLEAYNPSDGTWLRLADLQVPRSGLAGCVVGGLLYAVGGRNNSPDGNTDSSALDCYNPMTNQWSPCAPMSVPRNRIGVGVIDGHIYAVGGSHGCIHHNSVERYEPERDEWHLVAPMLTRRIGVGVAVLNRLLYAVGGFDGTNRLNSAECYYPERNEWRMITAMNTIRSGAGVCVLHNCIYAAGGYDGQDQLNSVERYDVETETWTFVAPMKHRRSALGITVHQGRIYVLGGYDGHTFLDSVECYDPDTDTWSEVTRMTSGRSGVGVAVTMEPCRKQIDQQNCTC
row,effect of a mutation on the interaction,Variant
1,with no effect,G278S

# Variants of: B2
# Conditions: with thap7_human THAP7, Q9BT49
row,effect of a mutation on the interaction,Variant
1,with no effect,A115T
2,with no effect,R74Q

# Variants of: B3
# Conditions: with meox2_human MEOX2, P50222
# Chain of meox2_human MEOX2, P50222 (P50222 whole entry): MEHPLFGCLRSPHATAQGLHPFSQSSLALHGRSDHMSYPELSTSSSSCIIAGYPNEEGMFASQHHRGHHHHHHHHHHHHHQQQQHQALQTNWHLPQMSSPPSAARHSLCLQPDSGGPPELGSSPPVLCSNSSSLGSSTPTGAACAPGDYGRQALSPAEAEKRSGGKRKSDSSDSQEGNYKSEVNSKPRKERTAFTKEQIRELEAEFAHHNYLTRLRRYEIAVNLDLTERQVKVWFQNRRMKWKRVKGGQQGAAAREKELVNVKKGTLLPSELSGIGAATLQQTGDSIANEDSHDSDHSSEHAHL
row,effect of a mutation on the interaction,Variant
1,with no effect,A16T

# Variants of: B4
# Conditions: with kpra_human PRPSAP1, Q14558
row,effect of a mutation on the interaction,Variant
1,with no effect,D203H

# Variants of: B4
# Conditions: with kpra_human PRPSAP1, Q14558
# Remark: another data set of the same source
row,effect of a mutation on the interaction,Variant
1,with no effect,E43D
2,with no effect,D183H

# Variants of: B5
# Conditions: with caco2_human CALCOCO2, Q13137
row,effect of a mutation on the interaction,Variant
1,with no effect,R369Q
2,with no effect,M410V

# Variants of: B6
# Conditions: with krt38_human KRT38, O76015
row,effect of a mutation on the interaction,Variant
1,with no effect,I527T

# Variants of: B7
# Conditions: with goga2_human GOLGA2, Q08379
row,effect of a mutation on the interaction,Variant
1,disrupting interaction strength,T138M

# Variants of: B8
# Conditions: with zn774_human ZNF774, Q6NX45
row,effect of a mutation on the interaction,Variant
1,disrupting interaction strength,L12H
